Source: article PMC2834479 (International journal of pharmaceutics, 2010)
Read-outs that look alike come from different tables or passages of the source. Marks after values point to notes of the source that are not given here.

Assays:
[1] = test system: cells that line the nasal cavity; conditions: 0.125% TDM, ref Arnold et al., 2004; cited from earlier work
[2] = rat, in vivo
[3] = test system: anesthetized, hyperglycemic rats; assay: Blood glucose levels; type: in vivo, rat; conditions: nose drops, 2 units of insulin, mean +/- SEM, n=3-6; for Blood Glucose AUC 0-180: trapezoidal rule
[4] = rat, in vivo; remark: listed apart in the source
[5] = Plasma insulin levels after nasal administration of insulin nose drops; conditions: rats, 2 units of insulin, with 0.125% TDM, human insulin RIA, mean +/- SEM, n = 3-6
[6] = with 0.125% TDM, basal glucose 303 to 393 mg/dl

Compound	Toxicity to the cells that line the nasal cavity [1]	Plasma Insulin AUC 0-180 [2]	Plasma Insulin T-max [2] [min]	Blood Glucose at 60 minutes after Insulin administration [3, 6]	Absorption of insulin from the nasal cavity (in words) [4]	Plasma Insulin C-max [2]	Blood Glucose AUC 0-180 [3, 6]	Blood Glucose AUC 0-180 ([3]; without TDM (0%)) [mg·min/dL]	Blood Glucose at 60 minutes after Insulin administration ([3]; without TDM (0%), upper limit of glucometer = 600 mg/dL)	Plasma Insulin C-max [5]	Plasma Insulin AUC 0-180 ([5]; up to 180 minutes, trapezoidal rule)
CCCCCCCCCCCCCCO[C@@H]1O[C@H](CO)[C@@H](O[C@H]2O[C@H](CO)[C@@H](O)[C@H](O)[C@H]2O)[C@H](O)[C@H]1O [TDM, tetradecyl-β-D-maltoside]	minimal toxicity	–	–	–	–	–	–	–	–	–	–
Aspart Insulin	–	55238 +/- 4600 ^a, ^b uU/ml × minutes	15	205 +/- 13 ^a, ^b mg/dL	absorbed from the nasal cavity	–	–	–	–	–	–
Glargine Insulin	–	67170 +/- 4800 ^a, ^b uU/ml × minutes	60	183 +/- 26 ^a mg/dL	absorbed from the nasal cavity	500 +/- 52 ^a, ^b uU/ml	36345 +/- 3600 ^a mg/dL × minutes	–	–	–	–
Lispro Insulin	–	41820 +/- 3300 ^a uU/ml × minutes	15	160 +/- 27 ^a mg/dL	–	–	39863 +/- 3200 ^a mg/dL × minutes	–	–	–	–
Regular Insulin: regular insulin (Novolin R®), Novo Nordisk	–	–	–	135 +/- 22 ^a mg/dL	–	–	32745 +/- 2400 ^a mg/dL × minutes	93728 ± 2600	600 +/- 10 ^** mg/dL	874 +/- 56 ^a uU/ml	33398 +/- 2500 ^a uU/ml × minutes
